Values quoted from earlier work in PMC5177622, “Multivalent Histone and DNA Engagement by a PHD/BRD/PWWP Triple Reader Cassette Recruits ZMYND8 to K14ac-Rich Chromatin” (Cell Reports, 2016).
Like-named read-outs stand apart in the source and are kept apart here.

Target: T1, human BAZ2B (UniProt: Q9UIF8 residues 2054-2168) WT (Homo sapiens, UniProt Q9UIF8)
T1 construct: residues 2054- 2168; made in house
T1 sequence (Q9UIF8 2054-2168): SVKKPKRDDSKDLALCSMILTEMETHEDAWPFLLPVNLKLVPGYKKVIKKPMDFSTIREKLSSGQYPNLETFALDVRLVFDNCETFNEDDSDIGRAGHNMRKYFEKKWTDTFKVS
Conditions: ITC
Description: Titrations were carried out in 20 mM HEPES pH 7.5 (at 25 °C), 200 mM NaCl and 15 °C while stirring at 1000 rpm. Peptides were titrated into protein solutions. Data related to Fi gur e 5. [P] [Pep] KD ΔHobs TΔS ΔG B AZ 2 B Peptide (μM) (μM) (μM) ...

[1] = ref Filippakopoulos et al., 2012

Substance	Kd (ref Philpott et al., 2011)	N (ref Philpott et al., 2011)	TΔS (ref Philpott et al., 2011)	ΔG (ref Philpott et al., 2011)	ΔHobs (ref Philpott et al., 2011)	Kd [1]	N [1]	TΔS [1]	ΔG [1]	ΔHobs [1]
H3(5-25)K14ac: histone H3 residues 5-25 peptide bearing K14ac; data from Philpott et al., 2011	6.3 ± 0.2 µM	1.00 ± 0.007	-0.12 kcal/mol	-6.74 kcal/mol	-6.86 ± 0.06 kcal/mol					
H3(9-19)K14ac: histone H3 residues 9-19 peptide bearing K14ac; data from Filippakopoulos et al., 2012						7.6 ± 0.3 µM	0.99 ± 0.007	-2.27 kcal/mol	-6.64 kcal/mol	-8.91 ± 0.08 kcal/mol
